The source of these data is the supplement of paper PMC10065799, “High-throughput profiling of sequence recognition by tyrosine kinases and SH2 domains using bacterial peptide display” (eLife, 2023).

One data set concerns the target Jak2 (UniProt O60674). The experiment in a line: phosphorylation enrichment, bacterial display (enrichment ratio); higher = better substrate or ligand; peptides without Tyr show the background.
Another data set has as its target Fyn (UniProt P06241). The description is as above.
For the next data set, the system named is c-Src. Described as above.
In a further data set the target is MERTK (UniProt Q12866). The description is as above.
Sequence of MERTK (Q12866 whole entry, looked up): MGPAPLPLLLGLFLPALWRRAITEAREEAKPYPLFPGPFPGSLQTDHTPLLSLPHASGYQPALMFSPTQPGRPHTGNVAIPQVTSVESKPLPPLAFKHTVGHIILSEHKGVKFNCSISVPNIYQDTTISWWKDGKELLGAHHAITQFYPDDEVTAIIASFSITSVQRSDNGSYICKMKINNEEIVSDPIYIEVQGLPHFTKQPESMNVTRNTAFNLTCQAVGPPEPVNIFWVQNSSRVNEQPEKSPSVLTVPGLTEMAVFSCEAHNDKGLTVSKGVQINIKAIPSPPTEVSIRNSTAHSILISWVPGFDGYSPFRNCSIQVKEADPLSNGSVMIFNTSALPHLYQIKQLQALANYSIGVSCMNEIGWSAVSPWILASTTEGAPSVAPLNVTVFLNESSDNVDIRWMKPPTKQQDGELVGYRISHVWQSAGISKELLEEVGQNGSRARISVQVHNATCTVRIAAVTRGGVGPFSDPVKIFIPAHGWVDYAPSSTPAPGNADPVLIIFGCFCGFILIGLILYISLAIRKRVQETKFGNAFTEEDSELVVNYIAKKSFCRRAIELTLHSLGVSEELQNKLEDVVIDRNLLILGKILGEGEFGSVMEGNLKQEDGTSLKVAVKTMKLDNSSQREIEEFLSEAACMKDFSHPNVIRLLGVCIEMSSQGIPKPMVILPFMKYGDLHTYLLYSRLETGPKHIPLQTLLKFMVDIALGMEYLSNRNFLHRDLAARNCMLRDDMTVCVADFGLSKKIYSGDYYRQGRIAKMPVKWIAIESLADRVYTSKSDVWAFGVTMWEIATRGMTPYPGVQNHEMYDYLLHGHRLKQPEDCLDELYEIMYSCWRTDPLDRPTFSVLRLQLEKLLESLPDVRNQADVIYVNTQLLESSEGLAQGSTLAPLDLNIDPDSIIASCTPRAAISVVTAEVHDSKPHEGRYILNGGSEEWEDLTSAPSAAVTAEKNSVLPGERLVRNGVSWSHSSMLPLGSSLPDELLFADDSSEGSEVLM
A further data set concerns the target Fes (UniProt P07332). The description is as above.
Another data set has as its target EPHB1 (UniProt P54762). The description is as above.
A further data set concerns Fer (mouse). Described as above.
A further data set concerns the target FGFR1 (UniProt P11362). The data set is described as above.
A further data set addresses FGFR3 (UniProt P22607). The description is as above.
The subject of the next data set is c-Abl (mouse). Described as above.
The next data set concerns AncSZ. The data set is described as above.
Another data set concerns the target Hck (UniProt P08631). The description is as above.
A further data set concerns the target EPHB2 (UniProt P29323). The data set is described as above.
Another data set concerns the target Grb2 SH2 (UniProt P62993). The experiment in a line: SH2 binding enrichment of the phosphorylated peptide, bacterial display (enrichment ratio); higher = better substrate or ligand; peptides without Tyr show the background.
The target of another data set is SHP2-C SH2. The description is as above.
The next data set deals with c-Src SH2. Described as above.
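Throughout, for SH2 binding enrichment of the phosphorylated peptide, bacterial display: peptide library displayed on the E. coli surface as eCPX fusions, selected cells deep-sequenced, score is each peptide's frequency after selection divided by its frequency in the input.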
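Throughout, for phosphorylation enrichment, bacterial display: 11-residue human phosphosite peptides and single-mutation variants displayed on the E. coli surface, counted by deep sequencing, each peptide's frequency after selection divided by its frequency in the unselected input library; frequency after pTyr selection over input frequency; kinase dosed for 20-30% of maximal phosphorylation in three min.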

Sequence of FGFR3 (P22607 whole entry, looked up): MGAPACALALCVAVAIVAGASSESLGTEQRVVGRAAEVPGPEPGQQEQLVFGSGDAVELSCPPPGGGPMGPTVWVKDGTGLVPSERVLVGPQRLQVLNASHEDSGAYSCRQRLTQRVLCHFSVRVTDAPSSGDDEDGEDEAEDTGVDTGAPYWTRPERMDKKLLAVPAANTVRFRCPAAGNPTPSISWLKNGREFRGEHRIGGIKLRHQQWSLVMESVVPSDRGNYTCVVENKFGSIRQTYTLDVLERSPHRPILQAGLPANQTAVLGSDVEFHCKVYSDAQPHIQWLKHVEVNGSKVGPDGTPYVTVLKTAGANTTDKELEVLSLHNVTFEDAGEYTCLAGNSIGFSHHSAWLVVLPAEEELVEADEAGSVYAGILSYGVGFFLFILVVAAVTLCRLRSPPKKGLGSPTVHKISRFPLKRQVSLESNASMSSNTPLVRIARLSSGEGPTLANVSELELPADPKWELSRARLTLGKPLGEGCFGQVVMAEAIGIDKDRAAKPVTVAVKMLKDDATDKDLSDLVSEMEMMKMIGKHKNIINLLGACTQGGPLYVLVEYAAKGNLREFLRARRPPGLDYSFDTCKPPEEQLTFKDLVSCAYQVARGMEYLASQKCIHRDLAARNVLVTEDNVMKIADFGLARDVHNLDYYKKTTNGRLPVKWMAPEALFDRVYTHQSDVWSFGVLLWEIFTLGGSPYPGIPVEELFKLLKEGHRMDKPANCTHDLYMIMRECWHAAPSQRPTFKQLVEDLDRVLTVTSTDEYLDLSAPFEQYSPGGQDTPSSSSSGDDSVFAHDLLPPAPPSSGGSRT
Sequence of EPHB2 (P29323 whole entry, looked up): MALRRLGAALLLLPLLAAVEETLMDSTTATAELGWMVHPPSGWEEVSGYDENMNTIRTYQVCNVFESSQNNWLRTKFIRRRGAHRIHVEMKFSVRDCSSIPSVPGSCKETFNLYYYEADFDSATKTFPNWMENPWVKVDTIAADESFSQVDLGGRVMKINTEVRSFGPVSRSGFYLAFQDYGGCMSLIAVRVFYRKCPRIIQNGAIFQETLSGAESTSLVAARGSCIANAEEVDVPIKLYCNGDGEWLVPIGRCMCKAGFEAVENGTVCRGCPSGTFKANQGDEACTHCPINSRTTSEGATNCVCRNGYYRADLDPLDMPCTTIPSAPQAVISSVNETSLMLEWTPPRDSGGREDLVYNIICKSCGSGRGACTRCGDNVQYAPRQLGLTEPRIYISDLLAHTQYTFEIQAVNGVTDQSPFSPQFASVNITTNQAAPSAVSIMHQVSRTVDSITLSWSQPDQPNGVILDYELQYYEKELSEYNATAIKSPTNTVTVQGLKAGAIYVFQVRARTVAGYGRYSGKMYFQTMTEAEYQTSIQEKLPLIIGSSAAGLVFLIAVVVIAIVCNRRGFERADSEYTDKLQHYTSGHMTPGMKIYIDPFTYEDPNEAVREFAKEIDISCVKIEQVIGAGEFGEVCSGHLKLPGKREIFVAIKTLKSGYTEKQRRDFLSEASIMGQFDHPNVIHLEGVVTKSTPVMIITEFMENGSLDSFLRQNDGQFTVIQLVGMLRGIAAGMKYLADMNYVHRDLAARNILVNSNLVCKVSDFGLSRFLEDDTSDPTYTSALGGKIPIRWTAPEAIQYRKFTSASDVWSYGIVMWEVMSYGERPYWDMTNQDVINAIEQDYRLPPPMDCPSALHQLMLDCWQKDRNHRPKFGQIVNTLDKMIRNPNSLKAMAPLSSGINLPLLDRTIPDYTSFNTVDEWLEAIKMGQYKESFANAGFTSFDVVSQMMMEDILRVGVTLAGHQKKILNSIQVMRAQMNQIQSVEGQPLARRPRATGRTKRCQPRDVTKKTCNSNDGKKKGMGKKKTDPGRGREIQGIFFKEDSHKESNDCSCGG
Sequence of EPHB1 (P54762 whole entry, looked up): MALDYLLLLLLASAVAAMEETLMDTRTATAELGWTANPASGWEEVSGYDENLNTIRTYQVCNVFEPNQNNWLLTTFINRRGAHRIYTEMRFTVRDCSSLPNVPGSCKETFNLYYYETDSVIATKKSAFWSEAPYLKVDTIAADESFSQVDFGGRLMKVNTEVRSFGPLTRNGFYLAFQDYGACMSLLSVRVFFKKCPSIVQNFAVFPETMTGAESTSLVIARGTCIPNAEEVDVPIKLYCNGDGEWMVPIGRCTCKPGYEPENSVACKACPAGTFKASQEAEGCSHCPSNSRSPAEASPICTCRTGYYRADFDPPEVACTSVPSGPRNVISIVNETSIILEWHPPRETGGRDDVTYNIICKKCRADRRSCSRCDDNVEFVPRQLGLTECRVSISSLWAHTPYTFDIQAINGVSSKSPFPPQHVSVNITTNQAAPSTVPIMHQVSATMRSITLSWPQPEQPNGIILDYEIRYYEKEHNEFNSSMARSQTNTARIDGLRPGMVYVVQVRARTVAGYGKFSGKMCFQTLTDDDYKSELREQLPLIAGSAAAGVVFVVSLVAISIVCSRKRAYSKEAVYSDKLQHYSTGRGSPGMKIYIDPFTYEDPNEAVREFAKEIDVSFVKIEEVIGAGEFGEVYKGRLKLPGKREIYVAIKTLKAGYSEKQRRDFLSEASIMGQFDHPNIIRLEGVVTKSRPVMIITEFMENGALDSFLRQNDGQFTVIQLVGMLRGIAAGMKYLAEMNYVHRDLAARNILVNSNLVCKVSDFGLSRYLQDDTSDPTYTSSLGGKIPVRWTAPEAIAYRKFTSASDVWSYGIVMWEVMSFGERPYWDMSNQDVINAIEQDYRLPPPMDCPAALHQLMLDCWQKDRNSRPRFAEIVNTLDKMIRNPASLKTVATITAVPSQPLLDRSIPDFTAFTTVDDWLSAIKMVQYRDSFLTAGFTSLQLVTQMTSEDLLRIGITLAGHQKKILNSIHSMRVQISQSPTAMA
Sequence of FGFR1 (P11362 whole entry, looked up): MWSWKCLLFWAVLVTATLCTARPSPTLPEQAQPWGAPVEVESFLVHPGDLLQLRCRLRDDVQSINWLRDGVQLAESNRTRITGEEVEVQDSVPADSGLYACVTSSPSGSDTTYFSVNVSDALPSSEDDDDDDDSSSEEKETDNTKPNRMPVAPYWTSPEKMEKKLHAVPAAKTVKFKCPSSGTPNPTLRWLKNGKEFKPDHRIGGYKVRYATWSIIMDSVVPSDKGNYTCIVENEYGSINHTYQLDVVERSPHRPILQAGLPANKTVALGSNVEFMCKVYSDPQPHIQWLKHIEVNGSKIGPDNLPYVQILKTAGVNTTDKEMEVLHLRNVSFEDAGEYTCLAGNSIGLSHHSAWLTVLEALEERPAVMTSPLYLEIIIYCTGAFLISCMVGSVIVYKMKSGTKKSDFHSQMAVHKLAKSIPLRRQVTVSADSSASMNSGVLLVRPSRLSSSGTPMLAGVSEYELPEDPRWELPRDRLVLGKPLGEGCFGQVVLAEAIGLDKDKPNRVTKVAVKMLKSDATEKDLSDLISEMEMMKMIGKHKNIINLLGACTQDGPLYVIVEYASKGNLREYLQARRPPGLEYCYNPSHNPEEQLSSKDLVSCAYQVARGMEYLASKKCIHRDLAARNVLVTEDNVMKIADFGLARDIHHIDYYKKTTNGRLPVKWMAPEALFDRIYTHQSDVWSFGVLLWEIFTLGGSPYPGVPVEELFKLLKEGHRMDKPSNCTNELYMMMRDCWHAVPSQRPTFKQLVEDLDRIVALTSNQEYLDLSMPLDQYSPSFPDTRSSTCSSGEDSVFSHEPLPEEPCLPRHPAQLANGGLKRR
Sequence of Grb2 SH2 (P62993 whole entry, looked up): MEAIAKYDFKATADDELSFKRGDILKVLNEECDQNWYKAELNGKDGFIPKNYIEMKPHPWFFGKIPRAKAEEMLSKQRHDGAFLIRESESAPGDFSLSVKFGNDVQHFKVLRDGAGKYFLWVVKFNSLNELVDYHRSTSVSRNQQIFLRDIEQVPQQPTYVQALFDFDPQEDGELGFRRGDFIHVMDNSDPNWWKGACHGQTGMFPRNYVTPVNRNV

As for EPFELYCEMGS [CBL_Y371_Q367P_YF], the phosphorylation enrichment stood at 1.38 with Jak2; 1.26 with Fyn; 1.21 in the data set with c-Src; 1.16 with MERTK; 1.55 with Fes; 2.64 with EPHB1. For the same sequence, the phosphorylation enrichment in the data set with Fer (mouse) came out at 0.749; in the data set with FGFR1, 0.897; with FGFR3, 1.22; in the data set on c-Abl (mouse) it was 0.848; in the data set on AncSZ, 1.68; in the data set with Hck, 1.51. In the data set with EPHB2, the phosphorylation enrichment is 2.31. Further, the SH2 binding enrichment with Grb2 SH2 stood at 0.764; with SHP2-C SH2, 0.558; with c-Src SH2 it was 0.397.

Turning to KPFRVYCDMNT [FGB_Y269_YF], the phosphorylation enrichment turned out to be 1.31 with Jak2; 0.493 with Fyn; 0.414 with c-Src; 0.409 with MERTK; 1.3 with Fes; 0.933 with EPHB1. Also, the phosphorylation enrichment turned out to be 0.593 in the data set with Fer (mouse); 0.597 with FGFR1; 0.773 with FGFR3; 0.886 in the data set with c-Abl (mouse); 1.22 with AncSZ; 0.513 with Hck. Besides, the phosphorylation enrichment with EPHB2 worked out at 0.72. Moreover, the SH2 binding enrichment with Grb2 SH2 worked out at 0.783; in the data set with SHP2-C SH2, 0.535; with c-Src SH2, 0.771.

As for FISVGYVDDTQ [HLA-B_Y51], the phosphorylation enrichment was 0.801 with Jak2; 0.47 with Fyn; 0.405 in the data set on c-Src; 0.432 with MERTK; 1.05 with Fes; 0.507 with EPHB1. Also, the phosphorylation enrichment in the data set on Fer (mouse) came out at 0.471; in the data set with FGFR1, 0.556; with FGFR3, 0.743; in the data set with c-Abl (mouse), 0.752; in the data set with AncSZ, 0.808; with Hck, 0.444. In addition, in the data set with EPHB2, the phosphorylation enrichment came to 0.593. Also, the SH2 binding enrichment in the data set with Grb2 SH2 was 1; with SHP2-C SH2, 0.747; with c-Src SH2, 0.599.

For the sequence YLAAIYPTVGQ [NF1_Y2508_T2507I], the phosphorylation enrichment in the data set with Jak2 turned out to be 0.671; in the data set with Fyn it was 0.513; with c-Src it was 0.528; in the data set with MERTK, 1.37; with Fes, 0.89; in the data set with EPHB1, 0.511. Besides, the phosphorylation enrichment with Fer (mouse) is 0.58; in the data set with FGFR1 it was 1.16; with FGFR3, 0.88; in the data set on c-Abl (mouse), 0.597; in the data set with AncSZ it was 0.94; in the data set with Hck, 0.57. In addition, the phosphorylation enrichment with EPHB2 was determined as 0.514. The SH2 binding enrichment with Grb2 SH2 was determined as 0.747; with SHP2-C SH2, 0.986; with c-Src SH2 it was 1.39.

On to TAALWYIYLHT [ENG_Y612_S615L], for which the phosphorylation enrichment with Jak2 was 1.55; with Fyn, 0.587; in the data set with c-Src it was 0.566; in the data set with MERTK it was 0.516; with Fes, 1.66; with EPHB1 it was 0.796. The phosphorylation enrichment stood at 0.769 in the data set on Fer (mouse); 0.81 in the data set with FGFR1; 1.1 in the data set with FGFR3; 1.18 in the data set with c-Abl (mouse); 1.41 in the data set with AncSZ; 0.579 in the data set with Hck. The phosphorylation enrichment with EPHB2 was determined as 0.639. For the same sequence, the SH2 binding enrichment in the data set with Grb2 SH2 is 0.989; with SHP2-C SH2, 0.52; with c-Src SH2, 0.514.

Regarding RSRQIYDAYIM [GRK3_Y109], the phosphorylation enrichment with Jak2 is 1.15; with Fyn, 15.2; in the data set with c-Src it was 11; with MERTK it was 8.17; with Fes, 0.807; in the data set with EPHB1 it was 3. Besides, the phosphorylation enrichment in the data set with Fer (mouse) was 14.6; with FGFR1 it was 0.511; with FGFR3 it was 0.8; with c-Abl (mouse) it was 6.11; in the data set on AncSZ, 0.914; in the data set with Hck, 10.4. In the data set with EPHB2, the phosphorylation enrichment was found to be 6.14. In addition, the figures for the SH2 binding enrichment in the data set with Grb2 SH2, in the data set with SHP2-C SH2 and with c-Src SH2 were 0.822, 0.727 and 0.683, respectively.

For ELQGTYTSLQQ [KIF3C_Y574_R571Q], the phosphorylation enrichment with Jak2 stood at 0.867; with Fyn it was 2.63; in the data set with c-Src, 3.34; with MERTK, 0.641; with Fes it was 0.995; with EPHB1, 0.638. In addition, the phosphorylation enrichment is 0.592 in the data set on Fer (mouse); 0.63 in the data set with FGFR1; 0.595 with FGFR3; 0.768 in the data set with c-Abl (mouse); 0.984 in the data set on AncSZ; 1.74 with Hck. In addition, the phosphorylation enrichment in the data set with EPHB2 worked out at 0.862. Also, the SH2 binding enrichment stood at 0.827 with Grb2 SH2, 1.63 with SHP2-C SH2 and 1.9 in the data set with c-Src SH2.

Consider TFMKKYPKVFL [CNBD1_Y70_Q69K], for which the phosphorylation enrichment with Jak2 was determined as 0.642; with Fyn it was 0.357; with c-Src it was 0.447; in the data set with MERTK, 0.404; with Fes it was 0.662; with EPHB1, 0.508. Further, the phosphorylation enrichment in the data set on Fer (mouse) came to 0.393; with FGFR1, 0.485; with FGFR3 it was 0.419; in the data set with c-Abl (mouse), 0.548; in the data set with AncSZ, 3.41; in the data set with Hck, 0.366. For the same sequence, the phosphorylation enrichment in the data set with EPHB2 was 0.419. Further, the figures for the SH2 binding enrichment in the data set with Grb2 SH2, in the data set with SHP2-C SH2 and with c-Src SH2 were 1.12, 1.52 and 1.17, respectively.

With HFMKLYEEKTG [PARP1_Y618], the phosphorylation enrichment in the data set with Jak2 was 0.592; with Fyn, 0.282; in the data set on c-Src it was 0.425; with MERTK it was 0.438; with Fes, 0.663; in the data set with EPHB1, 0.482. In addition, the phosphorylation enrichment came out at 0.277 in the data set with Fer (mouse); 0.464 with FGFR1; 1.08 with FGFR3; 0.355 in the data set with c-Abl (mouse); 0.862 in the data set on AncSZ; 0.519 with Hck. Further, in the data set with EPHB2, the phosphorylation enrichment worked out at 0.46. In addition, the SH2 binding enrichment with Grb2 SH2 was 0.766; with SHP2-C SH2 it was 0.962; in the data set with c-Src SH2, 0.433.
